The target of assay [1] is T1, human PSMA on the surface of prostate cancer cell lines (C42B / C42B-NLR, 22Rv1 / 22Rv1-NLR, PSMA-transfected … (human, UniProt Q04609 1-750)).
T1 construct: whole, on cells; also called Prostate Specific Membrane Antigen
The assay can be described thus: flow cytometry on 22Rv1-NLR (PSMA med) cells, 30 min at 37 degrees, detection with anti-human-Ig-FITC. In general terms: Flow cytometry measures light scatter and fluorescence of single cells or particles in a stream.

The target of assay [2] is T2, CD28 antigen used for the affinity determinations (human, UniProt P10747 19-152, limits assumed).
T2 construct: Octet/BLI is described only for the bivalent mAbs
Kind of assay: CD28 binding affinity of the scFv arm; method not stated; assigned to XENP40470 by elimination.

Assay [3] concerns the target T2, CD28 antigen used for the affinity …. The assay can be described thus: CD28 binding affinity of the scFv arm, told in a figure legend; method not stated.
In assay [4] the target is T1, human PSMA on the surface of prostate …. The assay can be described thus: binding to C4-2B (C42B, PSMA^hi) cells, MFI against concentration, least squares fit.
For assay [5], the target named is T2, CD28 antigen used for the affinity …. The assay can be described thus: CD28 binding affinity of the scFv arm; method not stated.
Assay [6] has the same target. Kind of assay: Octet (BLI), apparent dissociation constant (KDapp) of the bivalent mAb for CD28. (Biolayer interferometry detects binding as a change in optical thickness at a sensor tip.)
Assay [7] addresses T3, human CD28 on the surface of human PBMCs / T cells (human, UniProt P10747 19-220).
T3 construct: whole, on cells; Endogenous CD28 on human PBMCs (flow cytometry) and on T cells (functional assays); also called cell-surface CD28
The assay can be described thus: flow cytometry on human PBMCs, 1 h at 4 C, detected with Alexa Fluor 647 anti-human IgG Fc secondary.
Excerpt: Binding of the phage-derived bivalent mAbs to cell-surface CD28 was investigated.

We go through six molecules from patent publication US20250388704A1 (Xencor, published 2025).

B1: PSMA x CD28 bsAb with A10 PSMA binding domain and 1A7_H1_L1.71 CD28 binding domain (Platform X) (bispecific antibody)
heavy: not shown
scFv-Fc: not shown
light: SYELMQPPSVSVSPGQTARITCSGDALPKQYAYWYQQKPGQAPVLVIYKDSERPSGIPVRFSGSSSGTTVTLTITGVQAEDEADYYCQSADSSGTYVFGTGTKVTVLGQPKAAPSVTLFPPSSEELQANKATLVCLISDFYPGAVTVAWKADSSPVKAGVETTTPSKQSNNKYAASSYLSLTPEQWKSHRSYSCQVTHEGSTVEKTVAPTECS
By EC50 (read off the curve) is commonly meant the concentration at which the effect is half-maximal. Turning to B1, the “EC50 (read off the curve)” value in assay [1] is ~0.06 µg/mL.

B2: XENP40470 (bispecific antibody)
heavy: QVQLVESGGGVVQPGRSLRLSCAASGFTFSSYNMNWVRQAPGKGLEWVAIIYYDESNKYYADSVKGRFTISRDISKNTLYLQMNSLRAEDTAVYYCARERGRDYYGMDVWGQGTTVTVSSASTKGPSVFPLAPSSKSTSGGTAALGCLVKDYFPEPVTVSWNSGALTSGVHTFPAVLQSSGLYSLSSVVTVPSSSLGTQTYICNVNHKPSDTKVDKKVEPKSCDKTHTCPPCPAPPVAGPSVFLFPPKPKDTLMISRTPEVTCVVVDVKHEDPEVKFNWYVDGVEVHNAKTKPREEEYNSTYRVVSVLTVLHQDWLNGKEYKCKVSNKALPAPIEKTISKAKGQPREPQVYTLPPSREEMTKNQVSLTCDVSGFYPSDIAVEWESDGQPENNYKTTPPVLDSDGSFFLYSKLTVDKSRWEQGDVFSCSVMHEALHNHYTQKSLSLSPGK
scFv-Fc: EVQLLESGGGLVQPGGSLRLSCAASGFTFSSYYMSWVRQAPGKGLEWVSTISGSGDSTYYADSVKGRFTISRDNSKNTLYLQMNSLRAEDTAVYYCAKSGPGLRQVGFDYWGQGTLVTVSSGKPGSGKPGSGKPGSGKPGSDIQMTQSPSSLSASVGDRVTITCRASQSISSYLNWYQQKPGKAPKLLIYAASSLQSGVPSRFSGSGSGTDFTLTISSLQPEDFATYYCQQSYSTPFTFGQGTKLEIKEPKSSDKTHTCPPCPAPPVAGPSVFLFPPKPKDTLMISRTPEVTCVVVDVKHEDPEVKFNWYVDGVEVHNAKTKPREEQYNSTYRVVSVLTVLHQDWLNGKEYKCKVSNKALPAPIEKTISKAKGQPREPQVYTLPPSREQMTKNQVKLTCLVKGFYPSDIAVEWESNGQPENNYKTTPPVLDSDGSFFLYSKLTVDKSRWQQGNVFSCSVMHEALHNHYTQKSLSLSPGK
light: SYELMQPPSVSVSPGQTARITCSGDALPKQYAYWYQQKPGQAPVLVIYKDSERPSGIPVRFSGSSSGTTVTLTITGVQAEDEADYYCQSADSSGTYVFGTGTKVTVLGQPKAAPSVTLFPPSSEELQANKATLVCLISDFYPGAVTVAWKADSSPVKAGVETTTPSKQSNNKYAASSYLSLTPEQWKSHRSYSCQVTHEGSTVEKTVAPTECS
notes: Assigned to the 600 nM domain by elimination, because XENP39231 is told to be 1000 nM
Molecule B2 yielded a Kd in assay [2] of 600 nM.

B3: XENP38936 (bispecific antibody)
heavy: not shown
scFv-Fc: not shown
light: SYELMQPPSVSVSPGQTARITCSGDALPKQYAYWYQQKPGQAPVLVIYKDSERPSGIPVRFSGSSSGTTVTLTITGVQAEDEADYYCQSADSSGTYVFGTGTKVTVLGQPKAAPSVTLFPPSSEELQANKATLVCLISDFYPGAVTVAWKADSSPVKAGVETTTPSKQSNNKYAASSYLSLTPEQWKSHRSYSCQVTHEGSTVEKTVAPTECS
notes: also called PSMA x CD28 180 nM
For B3, the Kd in assay [3] amounted to 180 nM. For the same molecule, in assay [4], the “EC50 (read off the curve)” value was ~2 nM.

B4: XENP39231 (bispecific antibody)
heavy: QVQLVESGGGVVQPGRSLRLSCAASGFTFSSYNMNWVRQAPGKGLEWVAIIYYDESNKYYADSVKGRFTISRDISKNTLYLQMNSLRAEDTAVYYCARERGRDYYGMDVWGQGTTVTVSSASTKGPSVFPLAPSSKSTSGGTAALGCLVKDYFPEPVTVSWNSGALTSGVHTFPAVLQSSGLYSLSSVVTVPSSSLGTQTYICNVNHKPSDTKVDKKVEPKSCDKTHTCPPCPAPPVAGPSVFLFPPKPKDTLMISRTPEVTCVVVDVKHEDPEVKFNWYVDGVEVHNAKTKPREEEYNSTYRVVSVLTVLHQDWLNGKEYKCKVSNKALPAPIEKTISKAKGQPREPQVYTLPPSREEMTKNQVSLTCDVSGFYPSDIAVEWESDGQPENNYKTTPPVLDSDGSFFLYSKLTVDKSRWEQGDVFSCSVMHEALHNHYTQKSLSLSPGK
scFv-Fc: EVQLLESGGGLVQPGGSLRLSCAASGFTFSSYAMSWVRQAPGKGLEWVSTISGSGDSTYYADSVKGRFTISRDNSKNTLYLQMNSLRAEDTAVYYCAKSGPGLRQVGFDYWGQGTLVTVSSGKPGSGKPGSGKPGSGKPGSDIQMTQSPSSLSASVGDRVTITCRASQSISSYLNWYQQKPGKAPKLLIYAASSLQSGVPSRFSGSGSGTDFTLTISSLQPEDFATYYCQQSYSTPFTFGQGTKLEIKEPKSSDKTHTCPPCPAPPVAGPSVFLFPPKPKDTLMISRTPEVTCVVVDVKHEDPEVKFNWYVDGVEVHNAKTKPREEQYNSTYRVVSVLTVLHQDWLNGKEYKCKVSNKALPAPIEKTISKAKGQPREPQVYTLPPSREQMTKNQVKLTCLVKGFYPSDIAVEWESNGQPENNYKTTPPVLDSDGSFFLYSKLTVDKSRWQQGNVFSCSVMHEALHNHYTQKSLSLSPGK
light: SYELMQPPSVSVSPGQTARITCSGDALPKQYAYWYQQKPGQAPVLVIYKDSERPSGIPVRFSGSSSGTTVTLTITGVQAEDEADYYCQSADSSGTYVFGTGTKVTVLGQPKAAPSVTLFPPSSEELQANKATLVCLISDFYPGAVTVAWKADSSPVKAGVETTTPSKQSNNKYAASSYLSLTPEQWKSHRSYSCQVTHEGSTVEKTVAPTECS
notes: also called PSMA x CD28 1 uM
On to B4, for which the Kd in assay [5] turned out to be 1000 nM.

B5: XENP28428 (antibody, V domains shown)
VH: EVQLLESGGGLVQPGGSLRLSCAASGFTFSSYAMSWVRQAPGKGLEWVSTISGSGDSTYYADSVKGRFTISRDNSKNTLYLQMNSLRAEDTAVYYCAKSGPGLRQVGFDYWGQGTLVTVSS
VL: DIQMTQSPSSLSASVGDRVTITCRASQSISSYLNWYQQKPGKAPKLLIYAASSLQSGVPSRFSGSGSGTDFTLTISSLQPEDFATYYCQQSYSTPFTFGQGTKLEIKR
notes: Bivalent IgG1 mAb with Fc gamma R ablation variants, made in HEK293E; also called anti-CD28 mAb based on clone 1A7; parental anti-CD28 mAb 1A7; copies: 2 + 2
As for B5, the Kd in assay [6] stood at 14.5 nM.

B6: XENP27181 (antibody, V domains shown)
VH: QVQLQESGPGLVKPSETLSLTCAVSGFSLTSYGVHWIRQPPGKGLEWLGVIWPGGGTNFNSALMSRLTISEDTSKNQVSLKLSSVTAADTAVYYCARDRAYGNYLYAMDYWGQGTLVTVSS
VL: DIQMTQSPSSLSASVGDRVTITCRASESVEYYVTSLMQWYQQKPGKAPKLLIYAASNVDSGVPSRFSGSGSGTDFTLTISSLQPEDIATYYCQQSRKVPFTFGGGTKVEIKR
notes: Bivalent anti-CD28 mAb; also called HuTN228; prior art anti-CD28 mAb HuTN228; copies: 2 + 2
As for B6, the binding result in assay [7] is “binds”.
